The values that follow come from patent US20050203007A1 (REGENTS OF THE UNIVERSITY OF MICHIGAN, published 2005).

For assay [1], the target named is T1, secreted, soluble furin (human, UniProt P09958 108-715, limits assumed).
T1 construct: Secreted, soluble construct; also called human furin
Briefly: rapid furin inhibition assay; table lists substitutions with equal or enhanced inhibition of furin relative to the template. The method, then: 3. Rapid screening of libraries. Libraries were introduced into E. coli BL21 (DE3) cells and individual, cloned transformants were grown by shaking at 37° C. in 200 μl LB containing […] kanamycin in 96-well, 0.45 μm GHP membrane filter plates (Gelman) (FIG. 2). When O.D. 600 values reached 0.4, 60 μl of culture were transferred to secondary 96-well plates (Falcon), adjusted to 10% glycerol, and stored at −80° C. These frozen stocks served as master copies of the libraries. IPTG was added to the cultures to a final concentration of 1 mM, and the cultures were allowed to express eglin c variants for one hour in the filter plate. Expressed eglin c variants were extracted from the cells with 50 mM Tris-HCl pH 8.0 containing 2 mM EDTA following freezing and thawing. These extracts were collected as filtrates by centrifugation of the filter plate above a second plate. The filtrates, representing partially purified eglin c variants, were analyzed using a rapid fluorescence-based assay for processing enzyme inhibition as described below in Section 5. […] Frozen cells were cultured in 50 to 100 ml culture volumes, and DNA maxipreps were performed; the DNA preparations were then sequenced by automated DNA sequencing. Selected variants were expressed and purified on a larger scale, and affinities for furin or Kex2 were examined quantitatively (see below).
5. Rapid protease inhibition assay. Novel eglin variants were diluted 50-fold and incubated with secreted, soluble furin (0.5 nM) for 15 min in 96-well plates. The furin substrate (Boc-Arg-Val-Arg-Arg-MCA) was added, and release of AMC was monitored continuously in a 96-well fluorescence plate reader for 20 min, as described under Example 1. […] The plasmid DNA encoding such eglin c variant inhibitors were isolated and sequenced.

For assay [2], the target named is T1, secreted, soluble furin. Briefly: equilibrium enzyme inhibition, fluorogenic substrate. The method, then:
(§1) Affinities of eglin variants with secreted, soluble Kex2 (hereafter “Kex2”; Brenner, C. and Fuller, R. S. (1992) Proc. Natl. Acad. Sci. USA 89: 922-926) and secreted, soluble furin (hereafter, “furin”; Bravo, D. A. et al (1994) J. Biol. Chem. 269: 25830-25837; and Komiyama & Fuller (2000) Biochemistry 39: 15156-15165) were measured by incubating variants with the enzymes (˜0.5 to 2.0 nM) for 45 min to 1 h at 21° C. in one of two enzyme assay buffers. For Kex2, the buffer was 200 mM Bistris (pH 7.27) containing 1 mM CaCl₂ and 0.1% Triton X-100; and for furin, the buffer was 20 mM NaMES (pH 7.0) containing 1 mM CaCl₂ and 0.1% Triton X-100 for furin. 100 to 200 μL aliquots of reaction mixtures were transferred into triplicate wells of opaque 96 well plates (Costar), and residual enzyme activity was measured with an fmax fluorescence micro plate reader (Molecular Devices) by monitoring hydrolysis of a fluorogenic substrate Boc-Arg-Val-Arg-Arg-MCA. Data were graphically analyzed (KaleidaGraph) with an equation developed by Green and Work (1953). Site-directed mutagenesis at P2 and P6 of eglin c generated temporary inhibitors (Table 3) and exhausted possibility to improve affinity further with this approach.

The target in assay [3] is T2, secreted, soluble Kex2 (Saccharomyces cerevisiae, UniProt P13134 114-613, limits assumed).
T2 construct: Secreted, soluble construct; also called kexin
T2 sequence (looked up): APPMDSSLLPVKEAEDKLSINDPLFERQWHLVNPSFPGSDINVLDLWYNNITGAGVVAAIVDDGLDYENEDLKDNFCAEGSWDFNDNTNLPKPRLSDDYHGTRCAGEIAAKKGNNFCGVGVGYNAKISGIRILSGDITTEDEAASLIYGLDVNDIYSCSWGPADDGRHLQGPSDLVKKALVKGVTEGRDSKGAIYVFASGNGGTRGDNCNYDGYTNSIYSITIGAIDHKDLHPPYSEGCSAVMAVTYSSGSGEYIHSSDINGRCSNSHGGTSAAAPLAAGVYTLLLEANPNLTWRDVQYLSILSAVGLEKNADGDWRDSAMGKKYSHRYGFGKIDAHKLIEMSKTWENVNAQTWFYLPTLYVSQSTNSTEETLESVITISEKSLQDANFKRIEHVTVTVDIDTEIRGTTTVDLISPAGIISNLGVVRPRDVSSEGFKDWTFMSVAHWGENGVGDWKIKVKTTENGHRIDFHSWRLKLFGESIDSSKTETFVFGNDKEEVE
Described as above. As for the experimental part:
as §1

Assay [4] has as its target T1, secreted, soluble furin. Description: equilibrium enzyme inhibition. As for the experimental part:
(§2) Thus, R1-eglin refers to substitution of Arg at position P1.
(§3) Affinities of eglin variants with secreted, soluble Kex2 (hereafter “Kex2”; Brenner, C. and Fuller, R. S. (1992) Proc. Natl. Acad. Sci. USA 89: 922-926) and secreted, soluble furin (hereafter, “furin”; Bravo, D. A. et al (1994) J. Biol. Chem. 269: 25830-25837; and Komiyama & Fuller (2000) Biochemistry 39: 15156-15165) were measured by incubating variants with the enzymes (˜0.5 to 2.0 nM) for 45 min to 1 h at 21° C. in one of two enzyme assay buffers. For Kex2, the buffer was 200 mM Bistris (pH 7.27) containing 1 mM CaCl₂ and 0.1% Triton X-100; and for furin, the buffer was 20 mM NaMES (pH 7.0) containing 1 mM CaCl₂ and 0.1% Triton X-100 for furin.

Assay [5] has as its target T2, secreted, soluble Kex2. Briefly: equilibrium enzyme inhibition. The method, then: as §2, §3
The target of assay [6] is T2, secreted, soluble Kex2. Description: affinity of purified variants, enzyme inhibition.
Assay [7] has as its target T1, secreted, soluble furin. Briefly: enzyme inhibition, purified variant.
The target in the next assay is T3, human PC7 (human, UniProt Q16549 142-667, limits assumed).
T3 sequence (looked up): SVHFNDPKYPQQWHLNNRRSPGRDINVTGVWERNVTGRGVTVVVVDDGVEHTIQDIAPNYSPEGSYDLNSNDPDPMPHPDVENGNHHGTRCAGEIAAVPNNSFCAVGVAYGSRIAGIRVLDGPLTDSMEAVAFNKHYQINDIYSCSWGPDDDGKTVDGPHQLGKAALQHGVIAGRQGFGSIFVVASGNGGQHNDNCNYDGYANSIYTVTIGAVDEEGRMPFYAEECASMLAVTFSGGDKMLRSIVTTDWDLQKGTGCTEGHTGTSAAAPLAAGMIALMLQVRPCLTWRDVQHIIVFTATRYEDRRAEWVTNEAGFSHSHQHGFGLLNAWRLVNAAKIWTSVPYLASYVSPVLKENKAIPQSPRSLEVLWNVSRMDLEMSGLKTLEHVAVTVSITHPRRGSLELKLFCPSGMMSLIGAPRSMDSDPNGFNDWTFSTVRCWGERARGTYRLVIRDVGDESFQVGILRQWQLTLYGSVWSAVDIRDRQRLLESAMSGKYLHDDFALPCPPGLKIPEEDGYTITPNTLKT
Briefly: enzyme inhibition, purified variant.

In assay [8] the target is T2, secreted, soluble Kex2. Briefly: enzyme inhibition, purified variant.
In assay [9] the target is T1, secreted, soluble furin. Description: enzyme inhibition, purified variant. The method, then: as §1
The source holds these as a separate data set.

Assay [10] deals with T2, secreted, soluble Kex2. Briefly: enzyme inhibition, purified variant. The method, then: as §1
This is another data set of the same source.

Changes are numbered by the printed parent chain.

T1 sequence (P09958 108-715 limits assumed): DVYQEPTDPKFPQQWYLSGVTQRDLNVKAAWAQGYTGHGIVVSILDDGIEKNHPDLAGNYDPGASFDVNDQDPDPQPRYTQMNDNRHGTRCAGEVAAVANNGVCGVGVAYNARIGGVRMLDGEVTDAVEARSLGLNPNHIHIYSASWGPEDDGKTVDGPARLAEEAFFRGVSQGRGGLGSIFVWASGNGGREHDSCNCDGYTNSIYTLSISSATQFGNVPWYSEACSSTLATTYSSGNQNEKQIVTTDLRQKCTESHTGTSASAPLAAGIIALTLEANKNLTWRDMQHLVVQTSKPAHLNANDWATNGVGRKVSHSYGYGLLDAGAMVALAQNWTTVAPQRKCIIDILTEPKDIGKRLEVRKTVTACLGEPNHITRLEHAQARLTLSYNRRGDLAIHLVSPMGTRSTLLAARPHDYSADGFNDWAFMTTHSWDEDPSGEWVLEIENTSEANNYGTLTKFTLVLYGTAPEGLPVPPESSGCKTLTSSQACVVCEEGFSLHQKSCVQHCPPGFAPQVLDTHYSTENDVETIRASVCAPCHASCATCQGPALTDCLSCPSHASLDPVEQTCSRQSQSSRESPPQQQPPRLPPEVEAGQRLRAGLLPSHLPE

B1: Asn50Asp-R4K1-eglin (designed binder)
chain: SMGSELKSFPEVVGKTVDQAREYFTLHYPQYDVYFLPEGSRVTKDLRYDRVRVFYNPGTNVVNHVPHVG
On to B1, for which the binding result in the assay with secreted, soluble furin [1] is reported as “binds”.

B2: Tyr35Ile-R4R1-eglin (designed binder)
chain: B1 chain with Y34I, K44R, D49N
Take B2: the binding result in the assay with secreted, soluble furin [1] is recorded as “binds”.

B3: M4K1-eglin (designed binder)
chain: B1 chain with R41M, D49N
notes: N-terminal Met removed
Usually Ki stands for a dissociation constant, usually derived from enzyme kinetics or from competition with a known ligand. Read a high Ki as weaker binding. Regarding B3, the Ki in the assay with secreted, soluble furin [2] is 17 µM; in the assay with secreted, soluble Kex2 [3], 0.0045 µM. Besides, the “fold decrease of Ka relative to M4R1-eglin” value is 4.7 fold in the assay with secreted, soluble furin [4] and 13.2 fold with secreted, soluble Kex2 [5].

B4: Glu39His-R4R1-eglin (designed binder)
chain: B1 chain with E38H, K44R, D49N
In the case of B4, the binding result was “binds” in the assay with secreted, soluble Kex2 [6] and “binds” in the assay with secreted, soluble furin [1].

B5: R4-eglin (designed binder)
chain: B1 chain with K44L, D49N
notes: N-terminal Met removed; also called R4L1-eglin
As to B5, the Ki in the assay with secreted, soluble furin [2] stood at 56 µM; with secreted, soluble Kex2 [3] it was 100 µM. In the assay with secreted, soluble furin [4], the “fold enhancement of affinity relative to L1-eglin” value lay within 2 to 3 fold. Besides, the “fold increase in affinity relative to L1-eglin” value with secreted, soluble Kex2 [5] is 5 fold.

B6: Gly40Pro-R4R1-eglin (designed binder)
chain: B1 chain with G39P, K44R, D49N
Consider B6, for which, in the assay with secreted, soluble furin [1], the binding result is “binds”.

B7: Asp33Ile-R4K1-eglin (designed binder)
chain: B1 chain with D32I, D49N
B7: in the assay with secreted, soluble furin [1], the binding result is “binds”.

B8: Glu39Gly-R4R1-eglin (designed binder)
chain: B1 chain with E38G, K44R, D49N
For the molecule B8, the binding result in the assay with secreted, soluble Kex2 [6] is recorded as “binds”; with secreted, soluble furin [1], “binds”.

B9: Ser49-R4R1-eglin (designed binder)
chain: B1 chain with K44R, Y48S, D49N
notes: R4R1 template; N-terminal Met removed
For B9, the Ki with secreted, soluble furin [7] came to 4.8 nM; with human PC7, 2.5 nM; in the assay with secreted, soluble Kex2 [8], 0.21 nM.

B10: Trp49-R4R1-eglin (designed binder)
chain: B1 chain with K44R, Y48W, D49N
notes: as for B9
In the case of B10, the Ki with secreted, soluble furin [7] turned out to be 10 nM; with human PC7 it was 0.47 nM; in the assay with secreted, soluble Kex2 [8], 1.2 nM.

B11: Leu47Val-R4R1-eglin (designed binder)
chain: B1 chain with K44R, L46V, D49N
Take B11: the binding result with secreted, soluble furin [1] is given as “binds”.

B12: Tyr49Ala-R4R1-eglin (designed binder)
chain: B1 chain with K44R, Y48A, D49N
notes: R4R1 template; N-terminal Met removed; also called Ala49-R4R1-
On to B12, for which the Ki with secreted, soluble furin [7] was determined as 1.8 nM; with human PC7 it was 2.9 nM; with secreted, soluble Kex2 [8] it was 1 nM; with secreted, soluble furin [9] it was 1.3 nM; in the assay with secreted, soluble Kex2 [10], 1 nM. For the same molecule, the “Ki ratio (to R4R1- template)” value with secreted, soluble furin [9] was found to be 0.526; with secreted, soluble Kex2 [10] it was 1.1. Moreover, in the assay with secreted, soluble furin [9], the “fold increase in affinity (relative to R4R1-eglin)” value is ~2 fold.

B13: Asp33Val-R4K1-eglin (designed binder)
chain: B1 chain with D32V, D49N
notes: R4K1 template; N-terminal Met removed
As for B13, in the assay with secreted, soluble furin [9], the Ki came to 17 nM and the “Ki ratio (to R4K1- template)” value came out at 0.455. Further, in the assay with secreted, soluble Kex2 [10], the affinity corresponds to a Ki of 1.2 nM and the “Ki ratio (to R4K1- template)” value came out at 0.476.

B14: Glu49-R4R1-eglin (designed binder)
chain: B1 chain with K44R, Y48E, D49N
notes: as for B9
With B14, the Ki amounted to 0.53 nM with secreted, soluble furin [7]; 2.9 nM with human PC7; 0.036 nM with secreted, soluble Kex2 [8].

B15: Asp33Gly-R4K1-eglin (designed binder)
chain: B1 chain with D32G, D49N
With B15, the binding result with secreted, soluble furin [1] is “binds”.

B16: Glu39Cys-R4R1-eglin (designed binder)
chain: B1 chain with E38C, K44R, D49N
Consider B16, for which the binding result with secreted, soluble Kex2 [6] was “binds”; in the assay with secreted, soluble furin [1], “binds”.

B17: Gly40Ala-R4R1-eglin (designed binder)
chain: B1 chain with G39A, K44R, D49N
Turning to B17, in the assay with secreted, soluble furin [1], the binding result is recorded as “binds”.

B18: Leu37Gly-R4K1-eglin (designed binder)
chain: B1 chain with L36G, D49N
notes: as for B13
In the case of B18, in the assay with secreted, soluble furin [9], the affinity, expressed as Ki, was 29 nM and the “Ki ratio (to R4K1- template)” value came to 0.769. Moreover, in the assay with secreted, soluble Kex2 [10], the Ki was 1.6 nM and the “Ki ratio (to R4K1- template)” value came to 0.625.

B19: Met49-R4R1-eglin (designed binder)
chain: B1 chain with K44R, Y48M, D49N
notes: as for B9
For B19, the Ki in the assay with secreted, soluble furin [7] came out at 1.6 nM; in the assay with human PC7, 1.4 nM; with secreted, soluble Kex2 [8], 1 nM.
